Reference: article doi:10.1101/2021.04.27.441644

Target: filamentous actin (F-actin) (rabbit) (UniProt P68135)
Assay: co-sedimentation

Sequence of CLIP-170 N-terminal fragment H2 (H2 1-481) (P30622 1-481): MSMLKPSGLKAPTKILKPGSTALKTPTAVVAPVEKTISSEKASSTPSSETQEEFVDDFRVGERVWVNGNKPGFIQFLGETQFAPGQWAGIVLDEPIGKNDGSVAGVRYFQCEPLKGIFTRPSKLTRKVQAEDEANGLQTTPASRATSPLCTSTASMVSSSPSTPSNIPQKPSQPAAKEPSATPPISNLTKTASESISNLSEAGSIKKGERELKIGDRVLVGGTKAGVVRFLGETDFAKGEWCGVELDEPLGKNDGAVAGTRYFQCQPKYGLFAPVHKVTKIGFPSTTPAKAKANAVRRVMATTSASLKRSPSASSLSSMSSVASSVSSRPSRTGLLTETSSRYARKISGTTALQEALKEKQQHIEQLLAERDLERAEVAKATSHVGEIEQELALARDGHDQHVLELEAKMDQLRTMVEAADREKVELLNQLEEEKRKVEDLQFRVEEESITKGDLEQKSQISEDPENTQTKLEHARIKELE

For “CLIP-170 N-terminal fragment H2 (H2 1-481) (from UniProt P30622 1-481) (domain or fragment)”, the Kd was 10 µM and the percent of H2 in the pellet with F-actin (self-pelleting subtracted) was 26%.
